In patent US20230235058A1 (OXFORD UNIVERSITY INNOVATION, published 2023):
Substitutions are numbered along the chain they refer to. Names and notes keep the numbering of the source. One block for each binder: values may come before it.

Legend:
[1] = target: T1, human FcγR2B (human, UniProt P31994 43-217); assay: SPR 37C, steady state; wild-type hIgG1 Fc
T1 construct: extracellular domain; also called hFcγR2B; CD32B
T1 sequence (looked up): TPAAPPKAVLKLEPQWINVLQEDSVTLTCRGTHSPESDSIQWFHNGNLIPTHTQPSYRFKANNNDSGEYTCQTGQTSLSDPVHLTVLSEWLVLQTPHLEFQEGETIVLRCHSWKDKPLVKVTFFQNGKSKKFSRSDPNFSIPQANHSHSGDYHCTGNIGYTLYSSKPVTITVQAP
Procedure: (§1) For the low affinity FcγRs (FcγR2A, FcγR2B, FcγR3A and FcγR3B) the interactions were assessed by surface plasmon resonance with the recombinantly expressed FcRs (extracellular domains only) as analyte. Briefly, recombinant human BTLA extracellular domain (BTLA^K31-R151) was covalently immobilised to both flow cells of all channels of a CMS Series S sensor chip using the GE Healthcare Amine coupling kit. The 2.8.6 Fc variant to be assessed was then captured (approx. 500-1000 response units) in flow cell 2 of each channel. Steady state affinity analysis was then performed by injecting varying concentrations of FcR in multiple cycles and measuring equilibrium binding. Double referencing was used (subtracting the signal in the reference Fc1 and also subtracting the signal from a blank zero concentration injection). KDs were calculated from the Langmuir curves (plotting equilibrium binding against analyte concentration to determine the concentration required for half maximal binding).

[2] = target: T2, human FcγR2A 131R (human, UniProt P12318 34-217); assay: SPR 37C, steady state; wild-type hIgG1 Fc
T2 construct: extracellular domain
T2 sequence (looked up): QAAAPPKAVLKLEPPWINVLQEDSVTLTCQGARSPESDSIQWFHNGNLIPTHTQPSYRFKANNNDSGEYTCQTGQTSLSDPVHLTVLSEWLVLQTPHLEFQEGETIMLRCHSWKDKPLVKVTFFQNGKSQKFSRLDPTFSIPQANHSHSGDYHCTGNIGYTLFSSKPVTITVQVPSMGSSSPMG
Procedure: as §1

[3] = target: T3, human FcγR3A 158F (human, UniProt P08637 17-208); assay: SPR 37C, steady state; wild-type hIgG1 Fc
T3 construct: extracellular domain
Procedure: as §1

[4] = target: T4, human FcγR3B (human, UniProt O75015 17-200, limits assumed); assay: SPR 37C, steady state; wild-type hIgG1 Fc
T4 construct: extracellular domain; also called CD16B
Procedure: as §1

[5] = target: T5, human FcγR2A 131H (human, UniProt P12318 34-217); assay: SPR 37C, steady state; wild-type hIgG1 Fc
T5 construct: extracellular domain
T5 sequence (looked up): T2 sequence (looked up) with R134H
Procedure: as §1

[6] = target: T6, human FcγR3A 158V (human, UniProt P08637 17-208); assay: SPR 37C, steady state; wild-type hIgG1 Fc
T6 construct: extracellular domain
Procedure: as §1

[7] = target: T7, human FcRn (human, UniProt P55899 24-297; P61769 21-119, limits assumed, biotinylated); assay: SPR, pH6.0
T7 construct: bought; also called FcRn pH6
Procedure: (§2) For the high affinity FcR interactions (FcγR1A, and also FcRn assessed at pH6.0) the binding was assessed in a kinetic analysis with antibody as analyte. […] Reference flow cell 1 was left empty in all channels. Purified antibody was then injected at a single concentration and on/off rates calculated by curve fitting on BiaEvaluation software. […] IgG Fc has two binding sites for FcRn so this assessment performed with FcRn immobilised at high density provides an avidity estimate for the interaction rather than a true KD.

[8] = target: T8, human FcγR1A (human, UniProt P12314 16-288, biotinylated); assay: SPR 37C, kinetic; wild-type hIgG1 Fc
T8 construct: bought; also called CD64A
Procedure: (§3) For the high affinity FcR interactions (FcγR1A, and also FcRn assessed at pH6.0) the binding was assessed in a kinetic analysis with antibody as analyte. […] Reference flow cell 1 was left empty in all channels. Purified antibody was then injected at a single concentration and on/off rates calculated by curve fitting on BiaEvaluation software.

[9] = target: T5, human FcγR2A 131H; assay: SPR 37C, steady state; hIgG4 P238D Fc variant
Procedure: For the low affinity FcγRs (FcγR2A, FcγR2B, FcγR3A and FcγR3B) the interactions were assessed by surface plasmon resonance with the recombinantly expressed FcRs (extracellular domains only) as analyte. […] The 2.8.6 Fc variant to be assessed was then captured (approx. 500-1000 response units) in flow cell 2 of each channel. Steady state affinity analysis was then performed by injecting varying concentrations of FcR in multiple cycles and measuring equilibrium binding. Double referencing was used (subtracting the signal in the reference Fc1 and also subtracting the signal from a blank zero concentration injection). KDs were calculated from the Langmuir curves (plotting equilibrium binding against analyte concentration to determine the concentration required for half maximal binding).

[10] = target: T1, human FcγR2B; assay: SPR 37C, steady state;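 note: fc variants captured on chip-bound human BTLA ectodomain, recombinant FcγR ectodomains injected as analyte at varied concentrations, double-referenced equilibrium binding fitted to Langmuir model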
Procedure: as §1

[11] = target: T2, human FcγR2A 131R; assay: SPR 37C, steady state;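 note: fc variants captured on chip-bound human BTLA ectodomain, recombinant FcγR ectodomains injected as analyte at varied concentrations, double-referenced equilibrium binding fitted to Langmuir model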
Procedure: as §1

[12] = target: T9, full length human BTLA expressed on cells (human, UniProt Q7Z6A9 31-289); assay: cell-based or functional assay
[13] = target: T10, monomeric soluble human BTLA extracellular domain (BTLA K31-R151) (human, UniProt Q7Z6A9 31-151); assay: SPR Biacore 8K 37C, single cycle kinetics;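 note: antibody captured on sensor chip, soluble BTLA extracellular domain flowed over at several concentrations in HBS-EP pH 7.4, rates fitted after subtracting isotype-control reference channel and blank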
T10 construct: also called hBTLA; monomeric BTLA
Procedure: (§4) The binding affinity and kinetics of humanised BTLA agonist antibodies to human or cynomolgus BTLA were determined by surface plasmon resonance using the Biacore 8K (GE Healthcare). […] Anti-BTLA antibody was then captured onto the biosensor surface and a negative control antibody (human IgG1k isotype control; Sino Biological cat #HG1K) captured in the reference channel. Various concentrations of monomeric soluble human BTLA extracellular domain (BTLA^K31-R151, produced recombinantly in house) or soluble cynomolgus macaque BTLA extracellular domain (BTLA^K31-R151, produced recombinantly in house) were then injected over the immobilized antibodies in the buffer HBS-EP (GE Healthcare, cat #BR100669), pH 7.4 (HBS-P) at 37° C., in a single cycle kinetics analysis.

[14] = target: T11, soluble cynomolgus macaque BTLA extracellular domain (BTLA K31-R151) (cynomolgus macaque); assay: SPR Biacore 8K 37C, single cycle kinetics;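 note: antibody captured on sensor chip, soluble BTLA extracellular domain flowed over at several concentrations in HBS-EP pH 7.4, rates fitted after subtracting isotype-control reference channel and blank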
T11 construct: also called cynomolgus BTLA; cyno BTLA
T11 chain: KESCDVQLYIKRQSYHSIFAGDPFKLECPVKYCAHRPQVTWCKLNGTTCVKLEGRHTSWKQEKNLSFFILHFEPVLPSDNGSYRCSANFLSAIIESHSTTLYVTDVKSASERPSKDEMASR
Procedure: as §4

[15] = target: T9, full length human BTLA expressed on …; assay: flow cytometry, BTLA Jurkat cells
Procedure: (§5) A lentiviral transfection system was used to express full length human or cynomolgus BTLA in a Jurkat T cell line. 1×10⁵ cells per well were plated in 96 well U-bottom plates. […] Secondary antibody was incubated for 30 minutes on ice, then cells were washed and resuspended in FACS buffer for analysis on a flow cytometer. The geometric mean fluorescent intensity of secondary antibody was plotted for each concentration and the EC50 for receptor binding calculated by non-linear curve fitting using GraphPad Prism software.
(§6) The ability of the BTLA agonist antibodies of the present invention to bind to human or cynomolgus BTLA expressed on the cell surface was assessed by flow cytometry. A lentiviral transfection system was used to express full length human or cynomolgus BTLA in a Jurkat T cell line. 1×10⁵ cells per well were plated in 96 well U-bottom plates.

[16] = target: T12, full length cynomolgus BTLA expressed on Jurkat cells (cynomolgus monkey, UniProt Q7Z6A9 31-289 (human entry)); assay: flow cytometry, BTLA Jurkat cells
T12 construct: also called cynomolgus BTLA expressing cells
T12 chain: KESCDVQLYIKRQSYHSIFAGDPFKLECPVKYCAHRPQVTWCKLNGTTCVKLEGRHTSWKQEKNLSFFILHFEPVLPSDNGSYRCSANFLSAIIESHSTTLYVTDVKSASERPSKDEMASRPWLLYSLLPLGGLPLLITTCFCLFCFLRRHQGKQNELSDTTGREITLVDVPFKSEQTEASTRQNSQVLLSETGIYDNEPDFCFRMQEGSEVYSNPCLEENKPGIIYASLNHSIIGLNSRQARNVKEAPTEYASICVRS
Procedure: as §5, §6

[17] = target: T3, human FcγR3A 158F; assay: SPR 37C, steady state;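 note: fc variants captured on chip-bound human BTLA ectodomain, recombinant FcγR ectodomains injected as analyte at varied concentrations, double-referenced equilibrium binding fitted to Langmuir model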
Procedure: as §1

[18] = target: T4, human FcγR3B; assay: SPR 37C, steady state;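 note: fc variants captured on chip-bound human BTLA ectodomain, recombinant FcγR ectodomains injected as analyte at varied concentrations, double-referenced equilibrium binding fitted to Langmuir model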
Procedure: as §1

[19] = target: T5, human FcγR2A 131H; assay: SPR 37C, steady state
Procedure: as §1

[20] = target: T6, human FcγR3A 158V; assay: SPR 37C, steady state
Procedure: as §1

[21] = target: T8, human FcγR1A; assay: SPR 37C, kinetic
Procedure: as §3

[22] = target: T10, monomeric soluble human BTLA …; assay: SPR, monomeric BTLA
[23] = target: T3, human FcγR3A 158F; assay: SPR 37C, steady state; hIgG1 D265A Fc variant
Procedure: as §1

[24] = target: T4, human FcγR3B; assay: SPR 37C, steady state; hIgG1 D265A Fc variant
Procedure: as §1

[25] = target: T8, human FcγR1A; assay: SPR 37C, kinetic; hIgG1 D265A Fc variant
Procedure: as §3

[26] = target: T8, human FcγR1A; assay: SPR 37C, kinetic; hIgG1 D265A S267E Fc variant
Procedure: as §3

[27] = target: T1, human FcγR2B; assay: SPR 37C, steady state; hIgG1 D265A G236D Fc variant
Procedure: as §1

[28] = target: T8, human FcγR1A; assay: SPR 37C, kinetic; hIgG1 P238D G237D P271G A330R (V9) Fc variant
Procedure: as §2

[29] = target: T1, human FcγR2B; assay: SPR 37C, steady state; hIgG1 P238D G237D P271G A330R (V9) Fc variant
Procedure: as §1

[30] = target: T2, human FcγR2A 131R; assay: as above
Procedure: as §1

[31] = target: T3, human FcγR3A 158F; assay: as above
Procedure: as §1

[32] = target: T4, human FcγR3B; assay: as above
Procedure: as §1

[33] = target: T5, human FcγR2A 131H; assay: as above
Procedure: as §1

[34] = target: T6, human FcγR3A 158V; assay: as above
Procedure: as §1

[35] = target: T1, human FcγR2B; assay: SPR (Example 23)
Procedure: as §1

[36] = target: T4, human FcγR3B; assay: SPR 37C, steady state; hIgG1 D265A A330R Fc variant
Procedure: as §1

T4 sequence (O75015 17-200 limits assumed): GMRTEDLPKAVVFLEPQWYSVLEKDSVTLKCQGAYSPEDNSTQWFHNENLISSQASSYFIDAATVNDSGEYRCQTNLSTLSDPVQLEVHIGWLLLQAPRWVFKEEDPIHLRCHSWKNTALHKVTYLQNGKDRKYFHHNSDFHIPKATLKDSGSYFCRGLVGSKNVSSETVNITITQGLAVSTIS
T3 sequence (P08637 17-208): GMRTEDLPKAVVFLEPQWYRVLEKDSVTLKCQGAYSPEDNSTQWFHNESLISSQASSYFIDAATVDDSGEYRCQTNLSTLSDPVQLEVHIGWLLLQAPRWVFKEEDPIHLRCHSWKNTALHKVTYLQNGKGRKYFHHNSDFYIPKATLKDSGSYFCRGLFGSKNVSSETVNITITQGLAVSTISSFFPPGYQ
T6 sequence (P08637 17-208 F176V): as the sequence (P08637 17-208) above, with F160V counted along it
T8 sequence (P12314 16-288): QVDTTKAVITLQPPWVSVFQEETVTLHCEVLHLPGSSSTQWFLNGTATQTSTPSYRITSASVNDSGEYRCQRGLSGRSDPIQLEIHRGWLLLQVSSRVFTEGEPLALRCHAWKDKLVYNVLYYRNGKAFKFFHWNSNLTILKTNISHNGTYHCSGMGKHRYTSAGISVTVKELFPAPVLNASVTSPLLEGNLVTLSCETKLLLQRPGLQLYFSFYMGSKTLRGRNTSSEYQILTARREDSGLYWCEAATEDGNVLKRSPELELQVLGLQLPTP

Kd [1]: 8.65 µM
Kd [2]: 1.57 µM
Kd [3]: 9.37 µM
Kd [4]: 22.9 µM
Kd [5]: 1.98 µM
Kd [6]: 2.78 µM
avidity (FcRn pH6) [7]: 4.58 nM
Kd [8]: 0.00375 µM
B1: humanised 2.8.6 hIgG1 (antibody)
heavy: not shown
VL: EIVLTQSPATLSLSPGERATLSCRASSSVSYMHWYQQKPGQAPRPLIYATSNRATGIPARFSGSGSGTDYTLTISSLEPEDFAVYYCHQWSSNPYTFGQGTKLEIKRTVAAPSVFIFPPSDEQLKSGTASVVCLLNNFYPREAKVQWKVDNALQSGNSQESVTEQDSKDSTYSLSSTLTLSKADYEKHKVYACEVTHQGLSSPVTKSFNRGEC
notes: Fc variant with the variable domains of humanised 2.8.6; not shown: human IgG1 heavy chain constant region; copies: 2 + 2

Kd [9]: 312 µM
Kd [10]: 17.5 µM
Kd [11]: 47.9 µM
B2: humanised 2.8.6 hIgG4 P238D (antibody)
heavy: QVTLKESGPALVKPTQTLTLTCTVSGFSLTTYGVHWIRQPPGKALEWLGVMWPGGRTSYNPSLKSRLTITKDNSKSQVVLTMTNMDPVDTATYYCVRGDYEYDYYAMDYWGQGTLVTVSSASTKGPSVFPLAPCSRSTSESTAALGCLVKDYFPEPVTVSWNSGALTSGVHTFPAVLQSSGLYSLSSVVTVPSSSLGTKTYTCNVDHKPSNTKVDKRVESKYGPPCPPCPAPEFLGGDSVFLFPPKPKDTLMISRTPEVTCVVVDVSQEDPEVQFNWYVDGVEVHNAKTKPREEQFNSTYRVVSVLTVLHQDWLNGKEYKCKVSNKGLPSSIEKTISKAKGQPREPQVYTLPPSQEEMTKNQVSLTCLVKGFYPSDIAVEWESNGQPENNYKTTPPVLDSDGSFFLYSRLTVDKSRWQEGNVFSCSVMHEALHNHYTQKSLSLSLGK
VL: B1 VL
notes: Fc variant with the variable domains of humanised 2.8.6; not shown: human IgG4 heavy chain constant region; copies: 2 + 2

inhibition of NFkB signal, IC50 [12]: 0.059 nM
maximal inhibition of NFkB signal [12]: 42%
avidity (FcRn pH6) [7]: 1.43 nM
Kd [13]: 0.00233 µM
koff [13]: 0.00157 s⁻¹
kon [13]: 673000 M⁻¹ s⁻¹
Kd [14]: 0.147 µM
koff [14]: 0.025 s⁻¹
kon [14]: 170000 M⁻¹ s⁻¹
EC50 [15]: 0.066 nM
EC50 [16]: 0.000854 µM
Kd [10]: 4.78 µM
Kd [11]: 28.9 µM
Kd [17]: 2480 µM
Kd [18]: 1580 µM
Kd [19]: 76.5 µM
Kd [20]: 7010 µM
Kd [21]: 0.465 µM
Kd [22]: 0.00073 µM
B3: Humanised 2.8.6 (hIgG1 P238D) (antibody)
heavy: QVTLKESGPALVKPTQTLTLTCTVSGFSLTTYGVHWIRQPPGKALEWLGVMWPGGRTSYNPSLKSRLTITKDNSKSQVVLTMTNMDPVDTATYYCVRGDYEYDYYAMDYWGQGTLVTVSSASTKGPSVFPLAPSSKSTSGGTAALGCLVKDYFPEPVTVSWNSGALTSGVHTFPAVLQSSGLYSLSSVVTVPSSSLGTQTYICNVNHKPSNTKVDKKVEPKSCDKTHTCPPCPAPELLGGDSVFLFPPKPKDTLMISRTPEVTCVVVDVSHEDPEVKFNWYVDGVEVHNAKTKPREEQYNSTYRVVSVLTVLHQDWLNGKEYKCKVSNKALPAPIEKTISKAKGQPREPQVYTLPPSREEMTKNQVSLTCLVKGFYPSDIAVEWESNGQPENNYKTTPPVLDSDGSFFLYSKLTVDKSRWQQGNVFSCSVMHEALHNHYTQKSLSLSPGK
light: B1 VL
notes: copies: 2 + 2

avidity (FcRn pH6) [7]: 12 nM
Kd [23]: 1490 µM
Kd [24]: 5200 µM
Kd [25]: 0.497 µM
Kd [10]: 193 µM
Kd [11]: 48.3 µM
Kd [19]: 40.1 µM
binding result [20]: no binding
B4: humanised 2.8.6 hIgG1 D265A (antibody)
heavy: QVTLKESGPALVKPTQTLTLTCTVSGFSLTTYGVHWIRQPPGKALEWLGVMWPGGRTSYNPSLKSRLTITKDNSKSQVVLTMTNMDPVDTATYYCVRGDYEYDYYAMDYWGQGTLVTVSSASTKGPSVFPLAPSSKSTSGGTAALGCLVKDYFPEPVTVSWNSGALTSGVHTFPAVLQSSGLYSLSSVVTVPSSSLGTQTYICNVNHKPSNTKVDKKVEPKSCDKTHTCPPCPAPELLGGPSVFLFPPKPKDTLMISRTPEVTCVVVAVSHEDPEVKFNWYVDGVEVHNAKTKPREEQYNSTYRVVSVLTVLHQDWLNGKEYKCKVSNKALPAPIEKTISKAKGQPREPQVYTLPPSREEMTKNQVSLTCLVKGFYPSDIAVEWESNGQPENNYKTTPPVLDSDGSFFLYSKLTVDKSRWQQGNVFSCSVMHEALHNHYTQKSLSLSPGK
light: B1 VL
notes: Fc variant with the variable domains of humanised 2.8.6; copies: 2 + 2

avidity (FcRn pH6) [7]: 11.9 nM
Kd [26]: 0.415 µM
Kd [10]: 157 µM
Kd [11]: 26.7 µM
binding result [17]: no binding
binding result [18]: no binding
Kd [19]: 173 µM
binding result [20]: no binding
B5: humanised 2.8.6 hIgG1 D265A S267E (antibody)
heavy: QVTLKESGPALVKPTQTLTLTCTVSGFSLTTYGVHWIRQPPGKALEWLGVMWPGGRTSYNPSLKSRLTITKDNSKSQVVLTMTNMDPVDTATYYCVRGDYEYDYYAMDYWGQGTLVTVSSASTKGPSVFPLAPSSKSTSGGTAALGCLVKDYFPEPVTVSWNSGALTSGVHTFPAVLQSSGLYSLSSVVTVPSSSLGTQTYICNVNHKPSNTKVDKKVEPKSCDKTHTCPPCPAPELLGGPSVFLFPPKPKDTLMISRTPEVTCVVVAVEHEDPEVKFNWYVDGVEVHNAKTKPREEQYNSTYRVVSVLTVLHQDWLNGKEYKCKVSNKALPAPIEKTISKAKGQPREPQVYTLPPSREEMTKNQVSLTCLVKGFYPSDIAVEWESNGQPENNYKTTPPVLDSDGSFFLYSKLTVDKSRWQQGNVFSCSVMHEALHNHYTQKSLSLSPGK
light: B1 VL
notes: as for B4

avidity (FcRn pH6) [7]: 14 nM
Kd [11]: 91.4 µM
binding result [17]: no binding
binding result [18]: no binding
binding result [19]: no binding
binding result [20]: no binding
binding result [21]: no binding
Kd [27]: 748 µM
B6: humanised 2.8.6 hIgG1 D265A G236D (antibody)
heavy: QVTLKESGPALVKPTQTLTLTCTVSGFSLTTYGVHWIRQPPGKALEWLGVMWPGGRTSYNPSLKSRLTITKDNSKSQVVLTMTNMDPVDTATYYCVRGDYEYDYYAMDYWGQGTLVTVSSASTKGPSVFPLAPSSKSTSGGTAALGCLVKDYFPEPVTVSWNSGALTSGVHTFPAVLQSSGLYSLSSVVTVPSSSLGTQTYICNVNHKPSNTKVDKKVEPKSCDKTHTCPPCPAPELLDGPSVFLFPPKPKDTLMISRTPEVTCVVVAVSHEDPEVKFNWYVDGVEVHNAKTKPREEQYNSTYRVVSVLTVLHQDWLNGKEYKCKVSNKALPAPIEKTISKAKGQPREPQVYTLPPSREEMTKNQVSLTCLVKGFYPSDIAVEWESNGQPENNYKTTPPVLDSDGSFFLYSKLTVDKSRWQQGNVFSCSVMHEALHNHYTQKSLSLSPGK
light: B1 VL
notes: as for B4

avidity (FcRn pH6) [7]: 1.98 nM
Kd [28]: 0.697 µM
Kd [29]: 0.173 µM
Kd [30]: 1.84 µM
Kd [31]: 216 µM
Kd [32]: 6090 µM
Kd [33]: 26.2 µM
Kd [34]: 321 µM
fold higher affinity than the P238D isotype [35]: ~30 fold
B7: humanised 2.8.6 hIgG1 P238D G237D P271G A330R (V9) (antibody)
heavy: QVTLKESGPALVKPTQTLTLTCTVSGFSLTTYGVHWIRQPPGKALEWLGVMWPGGRTSYNPSLKSRLTITKDNSKSQVVLTMTNMDPVDTATYYCVRGDYEYDYYAMDYWGQGTLVTVSSASTKGPSVFPLAPSSKSTSGGTAALGCLVKDYFPEPVTVSWNSGALTSGVHTFPAVLQSSGLYSLSSVVTVPSSSLGTQTYICNVNHKPSNTKVDKKVEPKSCDKTHTCPPCPAPELLGDDSVFLFPPKPKDTLMISRTPEVTCVVVDVSHEDGEVKFNWYVDGVEVHNAKTKPREEQYNSTYRVVSVLTVLHQDWLNGKEYKCKVSNKALPRPIEKTISKAKGQPREPQVYTLPPSREEMTKNQVSLTCLVKGFYPSDIAVEWESNGQPENNYKTTPPVLDSDGSFFLYSKLTVDKSRWQQGNVFSCSVMHEALHNHYTQKSLSLSPGK
light: B1 VL
notes: Fc variant with the variable domains of humanised 2.8.6; also called 2.8.6 hIgG1 V9; hIgG1 V9 isotype; copies: 2 + 2

Kd [10]: 347 µM
Kd [11]: 67 µM
binding result [17]: no binding
Kd [19]: 39.4 µM
binding result [20]: no binding
Kd [36]: 9100 µM
B8: humanised 2.8.6 hIgG1 D265A A330R (antibody)
heavy: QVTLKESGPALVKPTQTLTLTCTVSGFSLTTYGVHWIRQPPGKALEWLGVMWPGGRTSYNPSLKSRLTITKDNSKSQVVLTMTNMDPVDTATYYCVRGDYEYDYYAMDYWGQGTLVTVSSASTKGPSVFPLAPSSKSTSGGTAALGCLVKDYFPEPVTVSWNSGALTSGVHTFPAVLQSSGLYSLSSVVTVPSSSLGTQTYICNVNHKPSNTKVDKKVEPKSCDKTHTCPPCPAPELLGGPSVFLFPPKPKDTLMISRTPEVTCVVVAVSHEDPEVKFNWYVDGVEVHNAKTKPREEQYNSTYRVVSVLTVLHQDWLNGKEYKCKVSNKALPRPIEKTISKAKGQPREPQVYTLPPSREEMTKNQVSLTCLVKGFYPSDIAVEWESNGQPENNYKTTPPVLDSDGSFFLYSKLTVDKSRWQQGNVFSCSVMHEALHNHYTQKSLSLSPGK
light: B1 VL
notes: as for B4
